Test results taken from article PMC6291300.
Where two headings read alike, the source gives them in different places. One block for each molecule: values may come before it.

How the values were obtained:
[1] = target: Human FcRn (α-chain and β2m) on stably transfected MDCK cells (human) (UniProt P55899); assay: flow cytometry on cells
[2] = target: Human FcRn (α-chain and β2m) on stably transfected MDCK cells (human) (UniProt P55899); assay: flow cytometry on cells; remark: listed apart in the source
[3] = target: Rozanolixizumab (1519.g57 IgG4P); assay: SPR
[4] = target: Rozanolixizumab (1519.g57 IgG4P); assay: SPR; remark: listed apart in the source
[5] = target: Cynomolgus monkey FcRn (α-chain and β2m) on stably transfected MDCK cells (cynomolgus monkey) (UniProt Q8SPV9); assay: flow cytometry on cells
Chain of UniProt Q8SPV9 (Q8SPV9 24-365, chain 1 of 2): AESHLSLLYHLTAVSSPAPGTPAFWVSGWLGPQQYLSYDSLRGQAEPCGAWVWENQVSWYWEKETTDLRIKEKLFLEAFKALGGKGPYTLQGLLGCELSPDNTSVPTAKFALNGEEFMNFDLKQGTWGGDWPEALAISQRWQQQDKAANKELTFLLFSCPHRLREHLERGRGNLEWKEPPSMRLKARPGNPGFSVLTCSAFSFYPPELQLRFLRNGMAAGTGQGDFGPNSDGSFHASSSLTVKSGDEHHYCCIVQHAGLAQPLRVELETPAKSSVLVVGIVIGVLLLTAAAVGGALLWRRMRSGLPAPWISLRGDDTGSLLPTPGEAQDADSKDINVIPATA
Chain of UniProt Q8SPV9 (Q8SPW0 21-119, chain 2 of 2, further chain): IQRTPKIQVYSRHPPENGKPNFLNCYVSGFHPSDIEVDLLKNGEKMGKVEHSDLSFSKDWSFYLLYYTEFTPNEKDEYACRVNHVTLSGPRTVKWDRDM

[6] = target: Rozanolixizumab (1519.g57 IgG4P); assay: SPR; remark: listed apart in the source

- Kd [1]: 420 pM
- Kd [2]: 440 pM
Molecule: 1519.g57 Fab’

- Kd [3]: < 23 pM
- Kd [4]: 34 pM
Molecule: Human FcRn extracellular domain (α-chain with β2-microglobulin) (from UniProt P55899 24-297; P61769 21-119) (complex)

Continued, molecule first:

Molecule: Rozanolixizumab (1519.g57 IgG4P) (antibody)
- Kd [5]: 1000 pM
- Kd [1]: 430 pM
- Kd [2]: 370 pM

B1: Rat FcRn extracellular domain (α-chain with β2-microglobulin) (complex)
chain 1: AEPRLPLMYHLAAVSDLSTGLPSFWATGWLGAQQYLTYNNLRQEADPCGAWIWENQVSWYWEKETTDLKSKEQLFLEAIRTLENQINGTFTLQGLLGCELAPDNSSLPTAVFALNGEEFMRFNPRTGNWSGEWPETDIVGNLWMKQPEAARKESEFLLTSCPERLLGHLERGRQNLEWKEPPSMRLKARPGNSGSSVLTCAAFSFYPPELKFRFLRNGLASGSGNCSTGPNGDGSFHAWSLLEVKRGDEHHYQCQVEHEGLAQPLTVDLDSPARSS
chain 2: IQKTPQIQVYSRHPPENGKPNFLNCYVSQFHPPQIEIELLKNGKKIPNIEMSDLSFSKDWSFYILAHTEFTPTETDVYACRVKHVTLKEPKTVTWDRDM
- Kd [6]: 99000 pM
